Results on five proteins are retold here after publication PMC9717613.

Substrate in data set [1]: Nc1ccccc1C(=O)C[C@H](N)C(=O)O
As to the kind of experiment: purified protein. The format is biochemical, Homo sapiens. The note with it: 0-2 mM substrate, 0.10-1.00 uM enzyme.

Substrate in data set [2]: Nc1c(O)cccc1C(=O)CC(N)C(=O)O
As to the kind of experiment: purified protein. Particulars: HsKYNase_66; racemic substrate; in D2O-PBS (H2O value only in Figure 1f).

Residue numbers refer to the chain shown, from its start. Names and notes keep the numbering of the source.

B1: HsKYNase (human kynureninase) (Homo sapiens) (protein)
chain: MEPSSLELPADTVQRIAAELKCHPTDERVALHLDEEDKLRHFRECFYIPKIQDLPPVDLSLVNKDENAIYFLGNSLGLQPKMVKTYLEEELDKWAKIAAYGHEVGKRPWITGDESIVGLMKDIVGANEKEIALMNALTVNLHLLMLSFFKPTPKRYKILLEAKAFPSDHYAIESQLQLHGLNIEESMRMIKPREGEETLRIEDILEVIEKEGDSIAVILFSGVHFYTGQHFNIPAITKAGQAKGCYVGFDLAHAVGNVELYLHDWGVDFACWCSYKYLNAGAGGIAGAFIHEKHAHTIKPALVGWFGHELSTRFKMDNKLQLIPGVCGFRISNPPILLVCSLHASLEIFKQATMKALRKKSVLLTGYLEYLIKHNYGKDKAATKKPVVNIITPSHVEERGCQLTITFSVPNKDVFQELEKRGVVCDKRNPNGIRVAPVPLYNSFHDVYKFTNLLTSILDSAETKN
A word on the Km: it is the concentration of substrate that gives half-maximal velocity. What is called kcat is the number of substrate molecules converted per active site and unit of time at saturation. What is called kcat/Km is the turnover number divided by the Michaelis constant. On to B1, for which, in data set [1], the Michaelis constant (Km) came out at 1570 µM, the kcat stood at 0.18 s⁻¹ and the catalytic efficiency (kcat/Km) amounted to 110 M⁻¹ s⁻¹.

B2: HsKYNase (human kynureninase) (Homo sapiens; E103Q/F225Y/I331V/I405L/L72N/M189I/N67D/S274G/S408N) (protein)
chain: B1 chain with N67D, L72N, E103Q, M189I, F225Y, S274G, I331V, I405L, S408N
On to B2, for which, in data set [1] (HsKYNase_46), the Michaelis constant (Km) was 190 µM, the catalytic constant (kcat) is 0.58 s⁻¹ and the kcat/Km was 3100 M⁻¹ s⁻¹.

B3: HsKYNase (human kynureninase) (Homo sapiens; … (protein)
chain: MEPSSLELPADTVQRIAAELKCHPTDERVALHLDEEDKLRHFRECFYIPKIQDLPPVDLSLVNKDEDAIYFNGNSLGLQPKMVKTYLEEELDKWAKIAIYGWFEGDSPWIHYDESIVGLMKDIVGANEKEIVLMNTLTVNLHLLMLSFFKPTPKRYKILLEAKAFPSDHYAIESQLQLHGLNIEESMRIIKPREGEETLRIEDILEVIEKEGDSIAVILFSGIHYYTGQHFNIPAITKAGQAKGCYVGFDLAHAVGNVELYLHDWGVDFACWCGYKYLNSSPGGIAGAFIHEKHAHTIKPALVGWFGHELSTRFKMDNKLQLIPGVCGFRCSTPPILLVCILHASLEIFKQATMKALRKKSVLLTGYLEYLIKHNYGKDKAATKKPVVNIITPSHVEERGCQLTLTFNVPNKDVFQELEKRGVVCDKRNPNGIRVAPVPLYNSFHDVYKFTNLLTSILDSAETKN
B3: the Km in data set [2] was 1370 ± 200 µM. For the same protein, in data set [1] (HsKYNase_66), the Km stood at 27 µM, the kcat is 1.54 s⁻¹ and the specificity constant (kcat/Km) came to 56000 M⁻¹ s⁻¹.

B4: HsKYNase (human kynureninase) (Homo sapiens; A136T/A99I/E103F/F225Y/H102W/I110M/I331C/I405L/K106E/L72N/M189I/N333T/N67D/R107S/S274G/S341I/S408N/V104E) (protein)
chain: B3 chain with D106E, I110M, H111T, Y112G, V132A, I223V, S280A, S281G, P282A
Turning to B4, in data set [1] (HsKYNase_64), the Km came out at 36 µM, the kcat is 0.24 s⁻¹ and the specificity constant (kcat/Km) amounted to 6700 M⁻¹ s⁻¹.

B5: HsKYNase (human kynureninase) (Homo sapiens; … (protein)
chain: B3 chain with A68T, I110L, V132A, I223V, G274N, F306W
On to B5, for which, in data set [1] (HsKYNase_95), the Km turned out to be 16 µM, the kcat amounted to 0.85 s⁻¹ and the kcat/Km is 55000 M⁻¹ s⁻¹.
